To fix the notation:
B1: MKK7 D-site peptide (second D-site) / JNK1 alpha1 (MAPK8 isoform 1) L198A, full length (parent complex)
chain 1: SQPQRPRPTLQLPLANEAFEQP
chain 2: MSRSKRDNNFYSVEIGDSTFTVLKRYQNLKPIGSGAQGIVCAAYDAILERNVAIKKLSRPFQNQTHAKRAYRELVLMKCVNHKNIIGLLNVFTPQKSLEEFQDVYIVMELMDANLCQVIQMELDHERMSYLLYQMLCGIKHLHSAGIIHRDLKPSNIVVKSDCTLKILDFGLARTAGTSFMMTPYVVTRYYRAPEVIAGMGYKENVDLWSVGCIMGEMVCHKILFPGRDYIDQWNKVIEQLGTPCPEFMKKLQPTVRTYVENRPKYAGYSFEKLFPDVLFPADSEHNKLKASQARDLLSKMLVIDASKRISVDEALQHPYINVWYDPSEAEAPPPKIPDKQLDEREHTIEEWKELIYKEVMDLEERTKNGVIRGQPSPLAQVQQ

Here are results for 75 variants from paper doi:10.1101/2021.08.20.457142.

Variants of B1 are the subject of the test.
As to chain 1 L12S, the screen value was -0.194 Z-score of the enrichment rate within one screen of 711 sequences.
For chain 1 L12G the value was -0.442 Z-score of the enrichment rate within one screen of 711 sequences; for chain 1 L12H, -0.33 Z-score of the enrichment rate within one screen of 711 sequences; for chain 1 L12Q, -0.624 Z-score of the enrichment rate within one screen of 711 sequences.
For chain 1 L12K the value was -0.431 Z-score of the enrichment rate within one screen of 711 sequences; for chain 1 L12W, 0.774 Z-score of the enrichment rate within one screen of 711 sequences.
The result for chain 1 A15D reads 1.08 Z-score of the enrichment rate within one screen of 711 sequences; that for chain 1 A15R, 1.69 Z-score of the enrichment rate within one screen of 711 sequences; that for chain 1 A15L, 1.8 Z-score of the enrichment rate within one screen of 711 sequences.
Consider chain 1 A15H, for which the screen value is 1.57 Z-score of the enrichment rate within one screen of 711 sequences.
The result for chain 1 A15G reads 1.63 Z-score of the enrichment rate within one screen of 711 sequences; that for chain 1 A15N, 1.48 Z-score of the enrichment rate within one screen of 711 sequences; that for chain 1 P6A, chain 1 L14A, 0.556 Z-score of the enrichment rate within one screen of 711 sequences.
As to chain 1 Q4M, the screen value is 1.12 Z-score of the enrichment rate within one screen of 711 sequences.
For chain 1 Q4W the value was 1.2 Z-score of the enrichment rate within one screen of 711 sequences; for chain 1 Q4E, 1.4 Z-score of the enrichment rate within one screen of 711 sequences.
As to chain 1 Q4C, the screen value was 1.41 Z-score of the enrichment rate within one screen of 711 sequences.
The result for chain 1 Q4R reads 2 Z-score of the enrichment rate within one screen of 711 sequences; that for chain 1 Q4K, 1.91 Z-score of the enrichment rate within one screen of 711 sequences; that for chain 1 Q4N, 1.28 Z-score of the enrichment rate within one screen of 711 sequences.
On to chain 1 Q4G, for which the screen value was 1.26 Z-score of the enrichment rate within one screen of 711 sequences.
With chain 1 Q4D, the screen value is 0.92 Z-score of the enrichment rate within one screen of 711 sequences.
chain 1 Q4S: the screen value is 2.02 Z-score of the enrichment rate within one screen of 711 sequences.
The result for chain 1 Q4V reads 1.56 Z-score of the enrichment rate within one screen of 711 sequences.
For the variant chain 1 Q4H, the screen value is 1.59 Z-score of the enrichment rate within one screen of 711 sequences.
For chain 1 P6A, chain 1 P13A the value was 0.914 Z-score of the enrichment rate within one screen of 711 sequences; for chain 1 L10A, chain 1 Q11A, -0.534 Z-score of the enrichment rate within one screen of 711 sequences.
The result for chain 1 P6A, chain 1 L10A reads -0.724 Z-score of the enrichment rate within one screen of 711 sequences.
The result for chain 1 L10I reads 0.256 Z-score of the enrichment rate within one screen of 711 sequences; that for chain 1 L10Y, -0.115 Z-score of the enrichment rate within one screen of 711 sequences; that for chain 1 L10E, -0.301 Z-score of the enrichment rate within one screen of 711 sequences.
Consider chain 1 L10M, for which the screen value was 1.08 Z-score of the enrichment rate within one screen of 711 sequences.
For chain 1 L10F the value was 0.606 Z-score of the enrichment rate within one screen of 711 sequences.
As to chain 1 L10C, the screen value was -0.173 Z-score of the enrichment rate within one screen of 711 sequences.
The result for chain 1 L10K reads -0.134 Z-score of the enrichment rate within one screen of 711 sequences; that for chain 1 R7A, chain 1 L10A, -0.455 Z-score of the enrichment rate within one screen of 711 sequences.
Regarding chain 1 Q4A, chain 1 N16A, the screen value was 1.68 Z-score of the enrichment rate within one screen of 711 sequences.
For chain 1 P6A, chain 1 R7A the value was 0.187 Z-score of the enrichment rate within one screen of 711 sequences; for chain 1 P3A, chain 1 L12A, -0.854 Z-score of the enrichment rate within one screen of 711 sequences; for chain 1 R7A, chain 1 T9A, 0.112 Z-score of the enrichment rate within one screen of 711 sequences.
For chain 1 L14N the value was 0.512 Z-score of the enrichment rate within one screen of 711 sequences; for chain 1 L14M, 0.805 Z-score of the enrichment rate within one screen of 711 sequences; for chain 1 L14Y, 0.328 Z-score of the enrichment rate within one screen of 711 sequences.
For chain 1 L14Q the value was 0.637 Z-score of the enrichment rate within one screen of 711 sequences; for chain 1 L14P, 0.76 Z-score of the enrichment rate within one screen of 711 sequences; for chain 1 L14H, 0.415 Z-score of the enrichment rate within one screen of 711 sequences.
On to chain 1 P3A, chain 1 L14A, for which the screen value is 0.559 Z-score of the enrichment rate within one screen of 711 sequences.
chain 1 P3A, chain 1 L10A: the screen value was -0.251 Z-score of the enrichment rate within one screen of 711 sequences.
For the variant chain 1 T9G, the screen value was 0.628 Z-score of the enrichment rate within one screen of 711 sequences.
The result for chain 1 T9P reads 0.775 Z-score of the enrichment rate within one screen of 711 sequences.
The result for chain 1 T9R reads 1.59 Z-score of the enrichment rate within one screen of 711 sequences; that for chain 1 T9K, 1.65 Z-score of the enrichment rate within one screen of 711 sequences.
For chain 1 T9N, the screen value was 1.85 Z-score of the enrichment rate within one screen of 711 sequences.
For chain 1 P3R the value was 1.66 Z-score of the enrichment rate within one screen of 711 sequences.
For chain 1 P3W the value was 1.63 Z-score of the enrichment rate within one screen of 711 sequences; for chain 1 P3G, 1.4 Z-score of the enrichment rate within one screen of 711 sequences; for chain 1 P3H, 1.27 Z-score of the enrichment rate within one screen of 711 sequences.
For chain 1 P3Q the value was 1.24 Z-score of the enrichment rate within one screen of 711 sequences; for chain 1 T9A, chain 1 Q11A, 1.19 Z-score of the enrichment rate within one screen of 711 sequences.
For chain 1 P3A, chain 1 T9A, the screen value was 0.956 Z-score of the enrichment rate within one screen of 711 sequences.
For chain 1 Q4A, chain 1 L14A the value was 0.562 Z-score of the enrichment rate within one screen of 711 sequences; for chain 1 P6D, 0.975 Z-score of the enrichment rate within one screen of 711 sequences.
The result for chain 1 P6I reads 1.35 Z-score of the enrichment rate within one screen of 711 sequences; that for chain 1 P6M, 1.27 Z-score of the enrichment rate within one screen of 711 sequences; that for chain 1 P6Y, 0.933 Z-score of the enrichment rate within one screen of 711 sequences.
The result for chain 1 P6K reads 1.52 Z-score of the enrichment rate within one screen of 711 sequences; that for chain 1 P6N, 1.28 Z-score of the enrichment rate within one screen of 711 sequences.
In the case of chain 1 P6G, the screen value is 0.655 Z-score of the enrichment rate within one screen of 711 sequences.
As for chain 1 R5Y, the screen value is 0.459 Z-score of the enrichment rate within one screen of 711 sequences.
For chain 1 R5H the value was 0.688 Z-score of the enrichment rate within one screen of 711 sequences.
For chain 1 R5L the value was 0.573 Z-score of the enrichment rate within one screen of 711 sequences; for chain 1 R5F, 1.12 Z-score of the enrichment rate within one screen of 711 sequences.
The result for chain 1 R5M reads 0.716 Z-score of the enrichment rate within one screen of 711 sequences; that for chain 1 R5C, 0.699 Z-score of the enrichment rate within one screen of 711 sequences; that for chain 1 R5S, 0.06 Z-score of the enrichment rate within one screen of 711 sequences.
